T1: full-length Lot5 with N-terminal His6-TEV tag (S. cerevisiae, UniProt P34234 1-306)
T1 sequence (looked up): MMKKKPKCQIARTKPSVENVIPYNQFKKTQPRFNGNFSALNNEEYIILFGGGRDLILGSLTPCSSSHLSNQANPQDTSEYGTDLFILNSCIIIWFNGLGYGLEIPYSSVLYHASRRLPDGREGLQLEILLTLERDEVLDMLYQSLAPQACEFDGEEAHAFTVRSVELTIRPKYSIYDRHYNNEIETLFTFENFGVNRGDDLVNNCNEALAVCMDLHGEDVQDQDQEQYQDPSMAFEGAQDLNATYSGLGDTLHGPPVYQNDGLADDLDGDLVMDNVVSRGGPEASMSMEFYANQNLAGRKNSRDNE

T2: D1/D2/F/E/G pentamer (5Sm) (S. cerevisiae, UniProt Q02260 1-109; Q06217 1-110; P54999 1-86; Q12330 1-94; P40204 1-77)
T2 sequence (looked up) 1: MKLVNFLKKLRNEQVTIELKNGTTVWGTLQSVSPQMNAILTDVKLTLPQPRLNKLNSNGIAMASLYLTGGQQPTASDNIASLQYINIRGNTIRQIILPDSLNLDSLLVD
T2 sequence (looked up) 2: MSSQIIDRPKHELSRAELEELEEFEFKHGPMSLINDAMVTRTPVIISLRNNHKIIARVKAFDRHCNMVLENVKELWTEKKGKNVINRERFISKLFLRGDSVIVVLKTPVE
T2 sequence (looked up) 3: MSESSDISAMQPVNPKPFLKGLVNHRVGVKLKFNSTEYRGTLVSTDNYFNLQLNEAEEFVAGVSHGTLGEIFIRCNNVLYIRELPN
T2 sequence (looked up) 4: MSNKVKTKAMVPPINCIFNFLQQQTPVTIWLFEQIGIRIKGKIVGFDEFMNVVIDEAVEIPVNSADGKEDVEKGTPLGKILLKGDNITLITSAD
T2 sequence (looked up) 5: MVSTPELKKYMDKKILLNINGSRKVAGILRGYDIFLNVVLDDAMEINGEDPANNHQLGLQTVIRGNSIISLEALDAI

T3: Brr1/5Sm heterohexamer (S. cerevisiae, UniProt Q99177 1-341; Q02260 1-109; Q06217 1-110; P54999 1-86; Q12330 1-94; P40204 1-77)
T3 sequence (looked up) 1: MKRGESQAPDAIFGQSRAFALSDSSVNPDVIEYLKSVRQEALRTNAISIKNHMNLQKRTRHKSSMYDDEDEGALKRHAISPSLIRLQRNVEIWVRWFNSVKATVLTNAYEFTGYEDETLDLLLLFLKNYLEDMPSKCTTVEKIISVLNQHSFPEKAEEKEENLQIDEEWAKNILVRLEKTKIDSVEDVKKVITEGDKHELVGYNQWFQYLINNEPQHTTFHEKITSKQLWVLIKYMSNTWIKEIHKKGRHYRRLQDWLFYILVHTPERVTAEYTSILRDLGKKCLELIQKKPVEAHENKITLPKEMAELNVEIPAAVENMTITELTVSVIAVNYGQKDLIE
T3 sequence (looked up) 2: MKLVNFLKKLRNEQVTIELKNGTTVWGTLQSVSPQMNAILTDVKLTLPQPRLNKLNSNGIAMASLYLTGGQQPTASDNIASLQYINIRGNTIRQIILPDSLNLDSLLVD
T3 sequence (looked up) 3: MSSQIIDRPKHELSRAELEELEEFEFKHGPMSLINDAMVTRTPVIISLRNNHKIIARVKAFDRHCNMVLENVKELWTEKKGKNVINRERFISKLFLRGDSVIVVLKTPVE
T3 sequence (looked up) 4: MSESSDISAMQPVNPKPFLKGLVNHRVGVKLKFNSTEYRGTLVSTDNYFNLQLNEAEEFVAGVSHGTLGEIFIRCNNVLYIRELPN
T3 sequence (looked up) 5: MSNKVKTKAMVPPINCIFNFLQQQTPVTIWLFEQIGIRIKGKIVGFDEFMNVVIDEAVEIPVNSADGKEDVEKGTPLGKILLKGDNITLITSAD
T3 sequence (looked up) 6: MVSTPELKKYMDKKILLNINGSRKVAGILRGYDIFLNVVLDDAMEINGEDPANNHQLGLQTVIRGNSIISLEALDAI

T4: Brr1Δ(122-197) with N-terminal His6-TEV tag (S. cerevisiae, UniProt Q99177 1-341, Δ(122-197))
T4 sequence (looked up): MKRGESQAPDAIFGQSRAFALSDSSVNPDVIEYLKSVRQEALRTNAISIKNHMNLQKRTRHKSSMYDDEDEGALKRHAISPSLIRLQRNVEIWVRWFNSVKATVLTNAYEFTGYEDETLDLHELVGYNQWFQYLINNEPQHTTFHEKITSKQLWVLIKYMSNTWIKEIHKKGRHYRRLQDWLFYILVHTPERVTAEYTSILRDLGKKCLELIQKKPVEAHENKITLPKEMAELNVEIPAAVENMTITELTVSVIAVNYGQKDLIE

B1: Lot5 (residues 1-227) with N-terminal His6-TEV tag (domain or fragment, S. cerevisiae, UniProt P34234 1-227, looked up)
chain: MMKKKPKCQIARTKPSVENVIPYNQFKKTQPRFNGNFSALNNEEYIILFGGGRDLILGSLTPCSSSHLSNQANPQDTSEYGTDLFILNSCIIIWFNGLGYGLEIPYSSVLYHASRRLPDGREGLQLEILLTLERDEVLDMLYQSLAPQACEFDGEEAHAFTVRSVELTIRPKYSIYDRHYNNEIETLFTFENFGVNRGDDLVNNCNEALAVCMDLHGEDVQDQDQEQ
B2: full-length Brr1, HT-tag removed (natural protein, S. cerevisiae, UniProt Q99177 1-341, looked up)
chain: MKRGESQAPDAIFGQSRAFALSDSSVNPDVIEYLKSVRQEALRTNAISIKNHMNLQKRTRHKSSMYDDEDEGALKRHAISPSLIRLQRNVEIWVRWFNSVKATVLTNAYEFTGYEDETLDLLLLFLKNYLEDMPSKCTTVEKIISVLNQHSFPEKAEEKEENLQIDEEWAKNILVRLEKTKIDSVEDVKKVITEGDKHELVGYNQWFQYLINNEPQHTTFHEKITSKQLWVLIKYMSNTWIKEIHKKGRHYRRLQDWLFYILVHTPERVTAEYTSILRDLGKKCLELIQKKPVEAHENKITLPKEMAELNVEIPAAVENMTITELTVSVIAVNYGQKDLIE
B3: full-length Brr1 with N-terminal His6-TEV tag (natural protein, S. cerevisiae, UniProt Q99177 1-341, looked up)
chain: MKRGESQAPDAIFGQSRAFALSDSSVNPDVIEYLKSVRQEALRTNAISIKNHMNLQKRTRHKSSMYDDEDEGALKRHAISPSLIRLQRNVEIWVRWFNSVKATVLTNAYEFTGYEDETLDLLLLFLKNYLEDMPSKCTTVEKIISVLNQHSFPEKAEEKEENLQIDEEWAKNILVRLEKTKIDSVEDVKKVITEGDKHELVGYNQWFQYLINNEPQHTTFHEKITSKQLWVLIKYMSNTWIKEIHKKGRHYRRLQDWLFYILVHTPERVTAEYTSILRDLGKKCLELIQKKPVEAHENKITLPKEMAELNVEIPAAVENMTITELTVSVIAVNYGQKDLIE

Tests used:
[1] = target: B1; assay: pull-down
[2] = target: T1, full-length Lot5 with N-terminal …; assay: pull-down
[3] = target: T2, D1/D2/F/E/G pentamer (5Sm); assay: SEC
Brr1/5Sm heterohexamer = target: T3, Brr1/5Sm heterohexamer; assay: SEC
[4] = target: T2, D1/D2/F/E/G pentamer (5Sm); assay: pull-down
[5] = target: B3; assay: pull-down
[6] = target: T4, Brr1Δ(122-197) with N-terminal His6-TEV …; assay: pull-down
[7] = target: B2; assay: SEC

binding result [1]	binding result [2]	binding result [3]	Binder	other results
binds	binds		SmD1/D2 subcomplex, HT-tag removed (complex, S. cerevisiae) chain 1: MKLVNFLKKLRNEQVTIELKNGTTVWGTLQSVSPQMNAILTDVKLTLPQPRLNKLNSNGIAMASLYLTGGQQPTASDNIASLQYINIRGNTIRQIILPDSLNLDSLLVD chain 2: MSSQIIDRPKHELSRAELEELEEFEFKHGPMSLINDAMVTRTPVIISLRNNHKIIARVKAFDRHCNMVLENVKELWTEKKGKNVINRERFISKLFLRGDSVIVVLKTPVE	
		binds	B1	binding result (Brr1/5Sm heterohexamer): binds
binds	binds		SmD3/B subcomplex, HT-tag removed (complex, S. cerevisiae) chain 1: MSKIQVAHSSRLANLIDYKLRVLTQDGRVYIGQLMAFDKHMNLVLNECIEERVPKTQLDKLRPRKDSKDGTTLNIKVEKRVLGLTILRGEQILSTVVEDKPLLSK chain 2: MTMNGIPVKLLNEAQGHIVSLELTTGATYRGKLVESEDSMNVQLRDVIATEPQGAVTHMDQIFVRGSQIKFIVVPDLLKNAPLFKKNS	
		binds	B2	
			B3	binding result [4]: binds
			SmF/E/G subcomplex, HT-tag removed (complex, S. cerevisiae) chain 1: MSESSDISAMQPVNPKPFLKGLVNHRVGVKLKFNSTEYRGTLVSTDNYFNLQLNEAEEFVAGVSHGTLGEIFIRCNNVLYIRELPN chain 2: MSNKVKTKAMVPPINCIFNFLQQQTPVTIWLFEQIGIRIKGKIVGFDEFMNVVIDEAVEIPVNSADGKEDVEKGTPLGKILLKGDNITLITSAD chain 3: MVSTPELKKYMDKKILLNINGSRKVAGILRGYDIFLNVVLDDAMEINGEDPANNHQLGLQTVIRGNSIISLEALDAI	binding result [5]: binds; binding result [6]: binds; binding result [7]: binds
